Experimental data from PMC9882672.

Biological target: ferroportin (human (endogenous in HEK 293)) (UniProt Q9NP59)
UniProt Q9NP59, sequence (Q9NP59 whole entry): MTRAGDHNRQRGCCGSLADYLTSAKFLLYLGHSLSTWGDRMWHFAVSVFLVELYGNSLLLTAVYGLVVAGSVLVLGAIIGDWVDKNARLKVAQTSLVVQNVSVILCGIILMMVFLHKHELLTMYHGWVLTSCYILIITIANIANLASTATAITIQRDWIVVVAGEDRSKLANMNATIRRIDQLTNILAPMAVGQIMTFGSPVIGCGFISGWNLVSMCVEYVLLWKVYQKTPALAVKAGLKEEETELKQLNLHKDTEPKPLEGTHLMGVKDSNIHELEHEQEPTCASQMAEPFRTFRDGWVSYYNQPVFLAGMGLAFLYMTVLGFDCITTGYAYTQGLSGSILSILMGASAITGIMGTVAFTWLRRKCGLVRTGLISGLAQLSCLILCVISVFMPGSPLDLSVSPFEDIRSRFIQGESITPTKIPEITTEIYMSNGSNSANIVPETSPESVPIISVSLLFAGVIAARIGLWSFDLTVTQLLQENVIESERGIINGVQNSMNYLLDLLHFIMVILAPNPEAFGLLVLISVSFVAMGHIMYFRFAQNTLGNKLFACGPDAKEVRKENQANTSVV

Substance | membrane Fpn of HEK 293 cells with 500 nM hepcidin for 5 to 60 minutes (membrane protein isolation, immunoblot), decrease compared to holo-Tf treatment [%] | membrane Fpn of HEK 293 cells with 0.25 μM holo-Tf for 5 to 60 minutes (membrane protein isolation, immunoblot), decrease compared to 0 minutes [%]
hepcidin (peptide) | 70 | 
holo (iron bound)-transferrin (from UniProt P02787 20-698) (natural protein) |  | 20
